Tested on: HEK293T
Experiment: median enrichment of reporter reads in eGFP-reduced (low/intermediate) vs eGFP-high sorted cells (eGFP-extension fusion abundance) (ratio); higher = stronger loss of eGFP-fusion protein abundance (more destabilising extension)
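Also: lentiviral eGFP-IRES-mCherry reporter pool sorted by FACS 96 h post-transduction, gated on mCherry-high cells, Illumina read counts normalized per million, median across four biological replicates.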

Substance	median enrichment
LGTQASPSLTAEVRNKRWFRVPA [PSMC3]	8.36
LTSDRRSSLSSLSGSKMTRANGTKFESCQVNTWVLSMVTSICFVMCVLFQPEWEMLIQLLQAAQWGWWL [CFH]	6.21
CGCAPAGSSKDRPARSPSNPTFFWKGGVLQGQAGASSRLLGANPSMYIAFLSCLRAADSQRCARGERCAVGSRA [TNFRSF1A]	13.5
LKELIFNFSLQTGQH [TAF7]	6.43
PHAQSPPIPHAAPPQSQATSCLLLVGGGLLSPSSLTFNLTLTLHRAPTLHPSWKAGLMASHWPPPPDQSVLFRGLAPFPVSLK [LGALS9]	5.55
WRPRIQH [FAR1]	1.02
YWVFGLTGARMDLQRQL [GPR149]	5.42
WWF [LRRCC1]	1.79
KKCEECGKSFS [ZNF676]	0.361
ESVAFLLFPH [NKAIN2]	6.56
QLPMPPQNWLLRVN [TSC22D1]	4.17
LSRLCTQGPSLATSLPFCLTPGHPSSLPHAQLPESPLCLTSPSTNGTPEGL [CYP11B1]	2.58
GAHPKYACHLRPQAGHTGQPACRQDLPASSSQYSLQRLKCEAPAPPSALQPTGPGRTCPLSVSPSRVPRWRPLSTG [PAK6]	3.28
SLYRLRR [ST3GAL6]	3.73
LTEPCWPAPTSLCSFLWFLLSFPTLRREIYFTALNSL [UBTD2]	9.94
YGFHKHP [SELP]	1.36
LLLLLLLLLL [Leu10]	14.7
WRLIIYQEC [PKIB]	7.89
QTGWPGPNP [EMILIN3]	0.352
LPMTLSWGPPARPGTFLPNPQTHDSLPHRLPQRPPTHFILSGHPSDLDPPVRAFKAPNSGTRSAPLPRPRAGNFSLPDPALLF [SCRT2]	6.07
QVVHIYGIWYEILICVYNT [ZNF230]	47.2

Substance	median enrichment
SGWLSTCSSWMASGPKLQSLNDQEQHEGLGTYPCKEFLDG [SQOR]	1.57
QQLRLHQRQHTKKL [BCAS3]	1.16
SNVIPLKRKMNNTLN [HRG]	0.435
LALYLGSGQELHLGTNSC [ABCF2]	6.15
CAQDGPRPSMANNHVRHSTSGRCSDASAGAGTPNPWLQNRDPHPDRGSSAFEGFQAGLCGTEAQRGPGTWQRWGREEIQLPSL [CCDC86]	5.52
QEWKSGSSRYSFMLCSCEQSTKFE [LMLN]	7.78
RCLELCCCQHDLFGA [TPH2]	5.32
QKRMMMTFIIHKQWEVQQCLGADLRRRMIFLSLLTT [MROH9]	20.2
YEDPPEE [IGF1]	2.17
LKVSVNLQC [ZFR]	6.3
WGGPNLDSFPALGHRRPGSSARQAWARRAPGRALSAAGARPRTSAGTRESLLGRSVNKPFFLLFFKNCFSH [DUOXA2]	5.58
RELTCETSA [FOXP2]	0.325
YLTFPAESVARGKVTIYAEMICLVPILCSTSVFQKFLINKLI [CDCA2]	4.06
GHSPLLVPH [TP53]	0.449
SDLVQHGNDSYRLIQQLTLRQVVLFQRPLFLPKPCYELNQMCQVFSGVLSNILFSCMGTSPLQMTMLMDLFIYLFKSLFS [IFNA8]	8.28
KKKK [Lys04]	0.575
SRVSGKKHSCMSICSWNQFL [STYK1]	11
YYYYYYYY [Tyr08]	5.87
EFK [BBS9]	0.267
SMSSDWRIRKIYGPTFDAIF [ZCCHC4]	8.58
LADI [MED30]	0.335

Substance	median enrichment
LSHA [CACNG6]	0.594
WQPPASHTVLQLTAHVHAVRADSSSTQQTRTYGLWMDADDGTVQ [CALN1]	8.36
RSNFSFTVLSCLHRKSQYNFHC [SEC23IP]	2.62
SGASQRSAHADNKVALSLE [FIBP]	0.209
SQAGMSPGSLARVGPQ [TXN2]	0.38
EEEEEEE [Glu07]	1.23
TQWAPCTPVSGAVRLGYIVNSASTERLALRASSESSSSGTPPKPTPPGTPLSGIPAKRRTLSRSRPPHPQSVAPPTEQPRFGP [PRRT1]	0.999
QGPAPRTDSTRKPNDVPARRPRRAAFPLVLEKLEHPVTALFAMGTGTLFYTMLPPSPP [CARM1]	3.47
QYTF [PNISR]	1.03
GANASRAAVNLCKD [BDKRB2]	0.298
CCCCCCC [Cys07]	9.39
WASSPPAHVMKQRFGLVAHCLWPPSPAQPQASQPQTLESPTTMERWAVAMVDGLPGWAFELALGTTRLSLSSHGTQKCAAMLP [ADGRG1]	5.77
LEIEKKKRISTQVFFFRNEDKI [ZNF24]	2.65
YRGRPGTGGMSCRPQPGRTPHSLSRQRGQNRPAQPWSPLHSPRPLAPALPTSSAWSEGAARAQQRRGGRLWPPTSRPVPAGTA [ARHGAP39]	7.75
LPRWFQPRHTLVPT [DNAAF5]	4.04
LILYPSAMATRRTNNCPPLEVRLIEALDPNKIRIRICNGPGAVPHACHPSTLGG [RBPMS]	3.14
SVVPLFH [KIF22]	0.762
CPLNAANSASRTPNNSA [OR2AT4]	0.496
YVFLKIKLKKEIFFLIKL [GALNT3]	6.22

— the supplement of paper PMC11502859
